Results as given in paper PMC2756758.
Values joined by “and” are separate entries in the source; they are usually repeats but may differ in a detail not shown here. Identical values can stand only once.

Target: T1, Myc-ArPIKfyve^WT (human), Q08AM6
T1 chain: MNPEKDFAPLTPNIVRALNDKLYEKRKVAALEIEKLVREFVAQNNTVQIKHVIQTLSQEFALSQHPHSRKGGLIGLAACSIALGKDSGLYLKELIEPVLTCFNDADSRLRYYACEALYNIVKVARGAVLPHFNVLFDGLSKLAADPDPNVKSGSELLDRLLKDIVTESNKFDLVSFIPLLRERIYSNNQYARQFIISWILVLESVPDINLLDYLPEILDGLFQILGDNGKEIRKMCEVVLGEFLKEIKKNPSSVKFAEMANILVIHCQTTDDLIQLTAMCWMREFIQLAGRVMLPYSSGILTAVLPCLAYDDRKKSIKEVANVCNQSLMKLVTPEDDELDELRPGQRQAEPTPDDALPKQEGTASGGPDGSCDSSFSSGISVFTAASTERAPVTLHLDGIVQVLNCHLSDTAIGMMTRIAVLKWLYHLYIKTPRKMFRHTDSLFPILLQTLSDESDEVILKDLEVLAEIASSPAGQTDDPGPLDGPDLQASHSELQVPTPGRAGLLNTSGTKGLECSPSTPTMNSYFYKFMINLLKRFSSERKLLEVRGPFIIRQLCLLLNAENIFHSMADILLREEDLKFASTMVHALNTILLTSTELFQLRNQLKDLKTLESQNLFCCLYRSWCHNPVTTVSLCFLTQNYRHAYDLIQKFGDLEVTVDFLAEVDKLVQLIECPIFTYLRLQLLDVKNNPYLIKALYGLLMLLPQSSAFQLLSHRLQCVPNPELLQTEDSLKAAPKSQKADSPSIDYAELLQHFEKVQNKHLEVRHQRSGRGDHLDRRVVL
Assay: cross-linking
Settings: remark: other sources report otherwise

- stoichiometry N: 2 and 3
B1: Myc-ArPIKfyve^WT, Q08AM6 1-782 (natural protein)
chain: MNPEKDFAPLTPNIVRALNDKLYEKRKVAALEIEKLVREFVAQNNTVQIKHVIQTLSQEFALSQHPHSRKGGLIGLAACSIALGKDSGLYLKELIEPVLTCFNDADSRLRYYACEALYNIVKVARGAVLPHFNVLFDGLSKLAADPDPNVKSGSELLDRLLKDIVTESNKFDLVSFIPLLRERIYSNNQYARQFIISWILVLESVPDINLLDYLPEILDGLFQILGDNGKEIRKMCEVVLGEFLKEIKKNPSSVKFAEMANILVIHCQTTDDLIQLTAMCWMREFIQLAGRVMLPYSSGILTAVLPCLAYDDRKKSIKEVANVCNQSLMKLVTPEDDELDELRPGQRQAEPTPDDALPKQEGTASGGPDGSCDSSFSSGISVFTAASTERAPVTLHLDGIVQVLNCHLSDTAIGMMTRIAVLKWLYHLYIKTPRKMFRHTDSLFPILLQTLSDESDEVILKDLEVLAEIASSPAGQTDDPGPLDGPDLQASHSELQVPTPGRAGLLNTSGTKGLECSPSTPTMNSYFYKFMINLLKRFSSERKLLEVRGPFIIRQLCLLLNAENIFHSMADILLREEDLKFASTMVHALNTILLTSTELFQLRNQLKDLKTLESQNLFCCLYRSWCHNPVTTVSLCFLTQNYRHAYDLIQKFGDLEVTVDFLAEVDKLVQLIECPIFTYLRLQLLDVKNNPYLIKALYGLLMLLPQSSAFQLLSHRLQCVPNPELLQTEDSLKAAPKSQKADSPSIDYAELLQHFEKVQNKHLEVRHQRSGRGDHLDRRVVL
